According to patent publication US20230302148A1, “PHARMACEUTICAL COMPOSITION COMPRISING LONG-ACTING CONJUGATE OF TRIPLE GLUCAGON/GLP-1/GIP RECEPTOR AGONIST” (HANMI PHARM. CO., LTD., priority 2020, published 2023):
Bridges are numbered along the chain shown (N, C = ends). Where no end group is shown, it is not given here. [ ]: non-standard residue; d: D form. The star is where a group is joined. Acetyl(2-(4-imidazolyl)) = O=C(Cc1c[nH]cn1)*; Aib = CC(C)(N)C(=O)O

How the values were obtained:
Test in all cases: cell-based or functional assay
human GCG receptor = human GCG receptor (human, UniProt P47871 26-477)
human GLP-1 receptor = human GLP-1 receptor (human, UniProt P43220 24-463)
human GIP receptor = target: T1, human GIP receptor (human, UniProt P48546 22-466)
T1 sequence (looked up): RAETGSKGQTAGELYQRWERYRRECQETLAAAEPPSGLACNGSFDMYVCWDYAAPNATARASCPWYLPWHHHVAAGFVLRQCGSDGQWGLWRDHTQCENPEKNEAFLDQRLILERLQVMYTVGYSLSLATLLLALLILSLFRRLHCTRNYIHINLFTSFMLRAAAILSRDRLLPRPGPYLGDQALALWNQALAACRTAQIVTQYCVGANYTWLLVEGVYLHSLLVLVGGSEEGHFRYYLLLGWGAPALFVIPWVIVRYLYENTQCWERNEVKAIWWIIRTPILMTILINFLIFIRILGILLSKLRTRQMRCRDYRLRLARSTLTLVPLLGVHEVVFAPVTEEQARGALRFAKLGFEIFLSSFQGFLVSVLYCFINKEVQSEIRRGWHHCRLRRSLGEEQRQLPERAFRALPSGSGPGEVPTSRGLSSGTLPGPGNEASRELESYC

Sequence of human GCG receptor (P47871 26-477): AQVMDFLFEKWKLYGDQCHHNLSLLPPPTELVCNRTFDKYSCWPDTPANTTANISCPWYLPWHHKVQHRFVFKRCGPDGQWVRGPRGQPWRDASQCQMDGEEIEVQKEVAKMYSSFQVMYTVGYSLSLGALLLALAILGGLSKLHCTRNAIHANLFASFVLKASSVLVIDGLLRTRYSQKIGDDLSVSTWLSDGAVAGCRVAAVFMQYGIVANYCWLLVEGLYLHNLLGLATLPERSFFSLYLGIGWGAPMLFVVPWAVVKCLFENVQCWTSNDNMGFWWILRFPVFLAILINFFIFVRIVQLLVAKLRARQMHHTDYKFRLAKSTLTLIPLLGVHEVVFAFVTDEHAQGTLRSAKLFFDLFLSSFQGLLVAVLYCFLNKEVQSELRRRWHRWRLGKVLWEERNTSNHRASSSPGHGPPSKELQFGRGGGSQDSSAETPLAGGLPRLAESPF

Y[Aib]QGTFTSDYSKYLDEKRAKEFVQWLLDHHCSSGQPPPS (bridge 16-20) [triple agonist of SEQ ID NO: 43]
In vitro activity relative to native peptide (%) vs. Glucagon (human GCG receptor): 88.4%
In vitro activity relative to native peptide (%) vs. GLP-1 (human GLP-1 receptor): 12.6%
In vitro activity relative to native peptide (%) vs. GIP (human GIP receptor): 3.7%

H[Aib]QGTFTSDYSKYLDEKRQKEFVQWLLNTC (bridge 16-20) [triple agonist of SEQ ID NO: 51]
In vitro activity relative to native peptide (%) vs. Glucagon (human GCG receptor): 2%
In vitro activity relative to native peptide (%) vs. GLP-1 (human GLP-1 receptor): 14.4%
In vitro activity relative to native peptide (%) vs. GIP (human GIP receptor): 0.1%

H[Aib]QGTFTSDVSSYLLGQQQKEFIAWLVKGC [triple agonist of SEQ ID NO: 4]
In vitro activity relative to native peptide (%) vs. Glucagon (human GCG receptor): < 0.1%
In vitro activity relative to native peptide (%) vs. GLP-1 (human GLP-1 receptor): 8.5%
In vitro activity relative to native peptide (%) vs. GIP (human GIP receptor): < 0.1%

H[Aib]QGTFTSDYSKYLDECRQKEFVQWLLNGGPSSGAPPPSG (bridge 16-20) [triple agonist of SEQ ID NO: 37]
In vitro activity relative to native peptide (%) vs. Glucagon (human GCG receptor): 6.21%
In vitro activity relative to native peptide (%) vs. GLP-1 (human GLP-1 receptor): 236%
In vitro activity relative to native peptide (%) vs. GIP (human GIP receptor): 2.2%

H[Aib]QGTFTSDYSKYLCEKRQKEFVQWLLNGGPSSGAPPPSG (bridge 16-20) [triple agonist of SEQ ID NO: 36]
In vitro activity relative to native peptide (%) vs. Glucagon (human GCG receptor): 0.39%
In vitro activity relative to native peptide (%) vs. GLP-1 (human GLP-1 receptor): 37.4%
In vitro activity relative to native peptide (%) vs. GIP (human GIP receptor): 0.2%

HGQGTFTSDCSKQLDGQAAQEFVAWLLAGGPSSGAPPPS [triple agonist of SEQ ID NO: 44]
In vitro activity relative to native peptide (%) vs. Glucagon (human GCG receptor): < 0.1%
In vitro activity relative to native peptide (%) vs. GLP-1 (human GLP-1 receptor): 1.3%
In vitro activity relative to native peptide (%) vs. GIP (human GIP receptor): < 0.1%

HGQGTFTSDCSKYLDGQRAQEFVAWLLAGGPSSGAPPPS [triple agonist of SEQ ID NO: 47]
In vitro activity relative to native peptide (%) vs. Glucagon (human GCG receptor): < 0.1%
In vitro activity relative to native peptide (%) vs. GLP-1 (human GLP-1 receptor): 2.4%
In vitro activity relative to native peptide (%) vs. GIP (human GIP receptor): < 0.1%

HGQGTFTSDCSKYLDGQRAQDFVNWLLAGGPSSGAPPPS [triple agonist of SEQ ID NO: 48]
In vitro activity relative to native peptide (%) vs. Glucagon (human GCG receptor): < 0.1%
In vitro activity relative to native peptide (%) vs. GLP-1 (human GLP-1 receptor): 1.5%
In vitro activity relative to native peptide (%) vs. GIP (human GIP receptor): < 0.1%

HGQGTFTSDCSKYMDGQAAQDFVAWLLAGGPSSGAPPPS [triple agonist of SEQ ID NO: 45]
In vitro activity relative to native peptide (%) vs. Glucagon (human GCG receptor): < 0.1%
In vitro activity relative to native peptide (%) vs. GLP-1 (human GLP-1 receptor): 6.6%
In vitro activity relative to native peptide (%) vs. GIP (human GIP receptor): < 0.1%

HGQGTFTSDCSKYLDEQHAQEFVAWLLAGGPSSGAPPPS [triple agonist of SEQ ID NO: 46]
In vitro activity relative to native peptide (%) vs. Glucagon (human GCG receptor): < 0.1%
In vitro activity relative to native peptide (%) vs. GLP-1 (human GLP-1 receptor): 1.4%
In vitro activity relative to native peptide (%) vs. GIP (human GIP receptor): < 0.1%

H[Aib]QGTFTSDYSKYLDEKRQKEFVNWLLAQKC (bridge 16-20) [triple agonist of SEQ ID NO: 34]
In vitro activity relative to native peptide (%) vs. Glucagon (human GCG receptor): 0.92%
In vitro activity relative to native peptide (%) vs. GLP-1 (human GLP-1 receptor): 19.1%
In vitro activity relative to native peptide (%) vs. GIP (human GIP receptor): 0.6%

H[Aib]QGTFTSDKSKYLDECAAQDFVQWLLDGGPSSGAPPPS [triple agonist of SEQ ID NO: 41]
In vitro activity relative to native peptide (%) vs. Glucagon (human GCG receptor): < 0.1%
In vitro activity relative to native peptide (%) vs. GLP-1 (human GLP-1 receptor): 34.3%
In vitro activity relative to native peptide (%) vs. GIP (human GIP receptor): < 0.1%

H[Aib]QGTFTSDVSSYLDGQAAKEFIAWLVKGC [triple agonist of SEQ ID NO: 1]
In vitro activity relative to native peptide (%) vs. Glucagon (human GCG receptor): < 0.1%
In vitro activity relative to native peptide (%) vs. GLP-1 (human GLP-1 receptor): 3.2%
In vitro activity relative to native peptide (%) vs. GIP (human GIP receptor): < 0.1%

Y[Aib]QGTFTSDYSKYLDEKRAKEFVQWLLDHHPSSGQPPPSC (bridge 16-20) [triple agonist of SEQ ID NO: 42]
In vitro activity relative to native peptide (%) vs. Glucagon (human GCG receptor): 206%
In vitro activity relative to native peptide (%) vs. GLP-1 (human GLP-1 receptor): 33.9%
In vitro activity relative to native peptide (%) vs. GIP (human GIP receptor): 7.8%

[Acetyl(2-(4-imidazolyl))][Aib]QGTFTSDYSICMDEIHQKDFVNWLLNTK (bridge 16-20; not fully specified) [triple agonist of SEQ ID NO: 49]
In vitro activity relative to native peptide (%) vs. Glucagon (human GCG receptor): < 0.1%
In vitro activity relative to native peptide (%) vs. GLP-1 (human GLP-1 receptor): 29.8%
In vitro activity relative to native peptide (%) vs. GIP (human GIP receptor): 3.3%

H[Aib]EGTFTSDYSIAMDEIHQKDFVDWLLAEC (bridge 16-20) [triple agonist of SEQ ID NO: 54]
In vitro activity relative to native peptide (%) vs. Glucagon (human GCG receptor): 1.4%
In vitro activity relative to native peptide (%) vs. GLP-1 (human GLP-1 receptor): 30.6%
In vitro activity relative to native peptide (%) vs. GIP (human GIP receptor): 0.1%

[Acetyl(2-(4-imidazolyl))][Aib]QGTFTSDYSICMDEKHQKDFVNWLLNTK (bridge 16-20; not fully specified) [triple agonist of SEQ ID NO: 59]
In vitro activity relative to native peptide (%) vs. Glucagon (human GCG receptor): < 0.1%
In vitro activity relative to native peptide (%) vs. GLP-1 (human GLP-1 receptor): 40.3%
In vitro activity relative to native peptide (%) vs. GIP (human GIP receptor): 4%

H[Aib]QGTFTSDYSKYLDEKRQKEFVQWLLDTC (bridge 16-20) [triple agonist of SEQ ID NO: 52]
In vitro activity relative to native peptide (%) vs. Glucagon (human GCG receptor): 7.5%
In vitro activity relative to native peptide (%) vs. GLP-1 (human GLP-1 receptor): 44.1%
In vitro activity relative to native peptide (%) vs. GIP (human GIP receptor): 0.3%

H[Aib]QGTFTSDVSSYLDGQAAKEFVAWLLKGC [triple agonist of SEQ ID NO: 6]
In vitro activity relative to native peptide (%) vs. Glucagon (human GCG receptor): < 0.1%
In vitro activity relative to native peptide (%) vs. GLP-1 (human GLP-1 receptor): 17%
In vitro activity relative to native peptide (%) vs. GIP (human GIP receptor): < 0.1%

[Acetyl(2-(4-imidazolyl))][Aib]QGTFTSDKSSYLDERAAQDFVQWLLDGGPSSGAPPPSS (not fully specified) [triple agonist of SEQ ID NO: 38]
In vitro activity relative to native peptide (%) vs. Glucagon (human GCG receptor): 1%
In vitro activity relative to native peptide (%) vs. GLP-1 (human GLP-1 receptor): 2.3%
In vitro activity relative to native peptide (%) vs. GIP (human GIP receptor): 1%

H[Aib]QGTFTSDYSKYLDGQHAQCFVAWLLAGGGPSSGAPPPS [triple agonist of SEQ ID NO: 39]
In vitro activity relative to native peptide (%) vs. Glucagon (human GCG receptor): 0.53%
In vitro activity relative to native peptide (%) vs. GLP-1 (human GLP-1 receptor): 13.9%
In vitro activity relative to native peptide (%) vs. GIP (human GIP receptor): < 0.1%

H[Aib]QGTFTSDYSIAMDEIHQKDFVNWLLNTKC (bridge 16-20) [triple agonist of SEQ ID NO: 35]
In vitro activity relative to native peptide (%) vs. Glucagon (human GCG receptor): < 0.1%
In vitro activity relative to native peptide (%) vs. GLP-1 (human GLP-1 receptor): 7.5%
In vitro activity relative to native peptide (%) vs. GIP (human GIP receptor): 1.3%

H[Aib]EGTFTSDYSIAMDEIHQKDFVNWLLAQC (bridge 16-20) [triple agonist of SEQ ID NO: 53]
In vitro activity relative to native peptide (%) vs. Glucagon (human GCG receptor): 8.4%
In vitro activity relative to native peptide (%) vs. GLP-1 (human GLP-1 receptor): 161%
In vitro activity relative to native peptide (%) vs. GIP (human GIP receptor): 1.3%

H[Aib]QGTFTSDKSKYLDERACQDFVQWLLDGGPSSGAPPPS [triple agonist of SEQ ID NO: 40]
In vitro activity relative to native peptide (%) vs. Glucagon (human GCG receptor): < 0.1%
In vitro activity relative to native peptide (%) vs. GLP-1 (human GLP-1 receptor): 75.2%
In vitro activity relative to native peptide (%) vs. GIP (human GIP receptor): < 0.1%

H[Aib]QGTFTSDYSIAMDEIHQKDFVNWLLAQC (bridge 16-20) [triple agonist of SEQ ID NO: 55]
In vitro activity relative to native peptide (%) vs. Glucagon (human GCG receptor): 0.7%
In vitro activity relative to native peptide (%) vs. GLP-1 (human GLP-1 receptor): 27.1%
In vitro activity relative to native peptide (%) vs. GIP (human GIP receptor): 2.4%

H[Aib]QGTFTSDYSKYLDEKRAKEFVQWLLDHHPSSGQPPPSC (bridge 16-20) [triple agonist of SEQ ID NO: 50]
In vitro activity relative to native peptide (%) vs. Glucagon (human GCG receptor): 50.5%
In vitro activity relative to native peptide (%) vs. GLP-1 (human GLP-1 receptor): 67.4%
In vitro activity relative to native peptide (%) vs. GIP (human GIP receptor): 2.7%

H[Aib]QGTFTSDYSKYLDEKRQKEFVNWLLAQC (bridge 16-20) [triple agonist of SEQ ID NO: 56]
In vitro activity relative to native peptide (%) vs. Glucagon (human GCG receptor): 4.9%
In vitro activity relative to native peptide (%) vs. GLP-1 (human GLP-1 receptor): 57.9%
In vitro activity relative to native peptide (%) vs. GIP (human GIP receptor): 0.8%

H[Aib]QGTFTSDYSKYLDEKRQKEFVQWLLNTKC (bridge 16-20) [triple agonist of SEQ ID NO: 58]
In vitro activity relative to native peptide (%) vs. Glucagon (human GCG receptor): 2.6%
In vitro activity relative to native peptide (%) vs. GLP-1 (human GLP-1 receptor): 39.1%
In vitro activity relative to native peptide (%) vs. GIP (human GIP receptor): 0.2%

H[Aib]QGTFTSDYSIAMDEIHQKDFVNWLLNTC (bridge 16-20) [triple agonist of SEQ ID NO: 57]
In vitro activity relative to native peptide (%) vs. Glucagon (human GCG receptor): < 0.1%
In vitro activity relative to native peptide (%) vs. GLP-1 (human GLP-1 receptor): 11.7%
In vitro activity relative to native peptide (%) vs. GIP (human GIP receptor): 0.3%

H[Aib]QGTFTSDVSSYLLGQQQKEFIAWLVKGGGPSSGAPPPSC [triple agonist of SEQ ID NO: 5]
In vitro activity relative to native peptide (%) vs. Glucagon (human GCG receptor): < 0.1%
In vitro activity relative to native peptide (%) vs. GLP-1 (human GLP-1 receptor): 42.1%
In vitro activity relative to native peptide (%) vs. GIP (human GIP receptor): < 0.1%
